Test results published in patent US20190062705A1 (WAYNE STATE UNIVERSITY, published 2019).

T1: autoimmune regulator (AIRE), mouse, endogenous in B cells (mouse, UniProt Q9Z0E3 1-552, limits assumed)
T1 construct: Endogenous protein in mouse splenic B cells and CH12 cells
T1 sequence: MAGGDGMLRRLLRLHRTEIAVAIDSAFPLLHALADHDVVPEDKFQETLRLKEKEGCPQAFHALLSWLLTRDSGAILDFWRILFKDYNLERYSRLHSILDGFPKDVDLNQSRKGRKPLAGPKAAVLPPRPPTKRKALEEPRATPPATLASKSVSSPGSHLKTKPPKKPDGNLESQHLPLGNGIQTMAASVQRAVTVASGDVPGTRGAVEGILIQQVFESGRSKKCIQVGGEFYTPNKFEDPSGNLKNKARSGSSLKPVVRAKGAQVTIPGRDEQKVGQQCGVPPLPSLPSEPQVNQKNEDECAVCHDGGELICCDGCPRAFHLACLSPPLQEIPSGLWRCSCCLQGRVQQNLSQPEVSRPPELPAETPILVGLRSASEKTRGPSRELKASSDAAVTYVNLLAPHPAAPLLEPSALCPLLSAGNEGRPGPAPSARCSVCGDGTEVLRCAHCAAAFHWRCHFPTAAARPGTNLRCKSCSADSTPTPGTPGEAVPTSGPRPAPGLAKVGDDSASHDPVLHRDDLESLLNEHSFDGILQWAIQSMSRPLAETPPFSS

T2: Bcl10, endogenous in the human Ramos B cell line (human, UniProt O95999 1-233)
T2 sequence (looked up): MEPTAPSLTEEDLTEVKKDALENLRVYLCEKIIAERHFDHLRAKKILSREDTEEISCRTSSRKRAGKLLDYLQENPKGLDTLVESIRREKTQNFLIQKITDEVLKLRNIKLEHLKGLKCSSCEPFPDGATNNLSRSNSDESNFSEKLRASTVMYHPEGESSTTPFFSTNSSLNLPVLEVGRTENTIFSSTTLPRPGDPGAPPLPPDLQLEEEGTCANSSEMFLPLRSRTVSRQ


What was measured:
[1] = target: T1, autoimmune regulator (AIRE), mouse, …; assay: co-IP, mouse splenic B cell lysates
[2] = target: T2, Bcl10, endogenous in the human Ramos B …; assay: co-IP in Ramos B cells unstimulated or stimulated with TNF for 24 h

binding result [1] | binding result [2] | Binder
binds |  | activation-induced cytidine deaminase (AID), mouse, endogenous in B cells (enzyme, UniProt Q9WVE0 1-198, looked up, Endogenous protein in mouse splenic B cells and CH12 cells) MDSLLMKQKKFLYHFKNVRWAKGRHETYLCYVVKRRDSATSCSLDFGHLRNKSGCHVELLFLRYISDWDLDPGRCYRVTWFTSWSPCYDCARHVAEFLRWNPNLSLRIFTARLYFCEDRKAEPEGLRRLHRAGVQIGIMTFKDYFYCWNTFVENRERTFKAWEGLHENSVRLTRQLRRILLPLYEVDDLRDAFRMLGF
 | no binding | activation-induced cytidine deaminase (AID), human, endogenous in B cells (enzyme, Endogenous protein in lysates of human tonsillar B cells and Ramos B cells) MDSLLMNRRKFLYQFKNVRWAKGRRETYLCYVVKRRDSATSFSLDFGYLRNKNGCHVELLFLRYISDWDLDPGRCYRVTWFTSWSPCYDCARHVADFLRGNPNLSLRIFTARLYFCEDRKAEPEGLRRLHRAGVQIAIMTFKDYFYCWNTFVENHERTFKAWEGLHENSVRLPRQLRRILLPLYEVDDLRDAFRTWGR
